Reference: article PMC9786172 (Molecules, 2022)

Experiments:
[1] = Stability of analytes in rat plasma samples (method validation)
Procedure: QC samples were prepared using the same process as that used for the calibration standards.
Plasma samples (100 µL) were mixed with 300 µL of 5% formic acid (in water) and vortexed for 5 min. Then, 500 µL acetonitrile of containing 20 ng/mL IS was added to the resultant mixture and vortexed for 5 min. After centrifugation at 14,500× g for 10 min at 4 °C, 800 µL of the supernatant was collected, dried under vacuum using a SpeedVac (Eyela, Tokyo, Japan), reconstituted with 50 μL of methanol, and injected into the LC-MS/MS system.
Using the calibration standard and QC samples, the present LC-MS/MS method was validated in terms of its selectivity, LLOQ, linearity, accuracy, precision, recovery, and stability according to the United States Food and Drug Administration guidelines for bioanalytical method validation [20].
Stability was determined under various analytical handling and storage conditions, such as bench-top, freeze–thaw, post-preparative, and long-term storage, at two QC levels (LQC and HQC).

[2] = in vivo; set-up: species or system Sprague-Dawley rat; conditions: rat
Procedure: Chromatographic analysis was performed on a Shimadzu Nexera LC-30AD UPLC system, and mass spectrometric detection was performed on an LCMS-8050 triple quadrupole mass spectrometer (Shimadzu Co., Kyoto, Japan) in the positive ESI and MRM mode. […] The gradient elution of the mobile phase consisting of 0.1% formic acid in water (solvent A) and 0.1% formic acid in acetonitrile (solvent B) was performed at a flow rate of 0.3 mL/min as follows (solvent A:solvent B, v/v): maintained at 19.3 for 0.01 min; ramped from 19.3 to 39.6 for 2.49 min; maintained at 39.6 for 0.01 min; ramped from 39.6 to 90 for 2.99 min; reverted to 19.3 for 0.01 min; and maintained for 1.99 min (total run time: 7.5 min). The ion source parameters were set as follows: nebulizing gas flow, 3 L/min; drying gas flow, 10 L/min; heating gas flow, 10 L/min; interface temperature, 300 °C; desolvation temperature, 250 °C; and heating block temperature, 400 °C. […] Rats underwent surgical implantation of a cannula in the femoral artery under anesthesia, as previously described. The LOC was dissolved in phosphate-buffered saline (pH 5.7). […] A blood sample of approximately 0.3 mL was collected via femoral artery cannulation at various time points (0, 1, 3, 5, 10, 20, 30, 60, 90, 120, 180, 240, 360, 480, and 600 min), then collected in heparin pre-treated microcentrifuge tubes. These blood samples were centrifuged at 4000× g for 10 min to obtain plasma and were frozen at −20 °C until analysis. Non-compartmental analysis was performed using Phoenix WinNonlin ver. 3.1 (Certara USA Inc., Princeton, NJ, USA) to estimate the following pharmacokinetic parameters: AUClast; total area under the plasma concentration versus time curve from time zero to time infinity (AUCinf); Cmax; Tmax; t1/2; and MRTinf. Values were obtained directly from the concentration–time plot. All values are reported as the mean ± standard deviation.

[3] = in vivo; cited from earlier work

SMILES: CCCCCCCC/C=C\CCCCCCCC(=O)OC[C@H](NC(=O)[C@H](Cc1c[nH]c2ccccc12)NC(=O)[C@H](Cc1c[nH]cn1)NC(=O)[C@@H]1CCC(=O)N1)C(=O)N[C@@H](Cc1ccc(O)cc1)C(=O)N[C@H](CC(C)C)C(=O)N[C@@H](CC(C)C)C(=O)N[C@@H](CCCNC(=N)N)C(=O)N1CCC[C@H]1C(=O)NCC [LOC]
- Autosampler stability (percentage of drug remaining), LQC ([1]; rat plasma samples, post-preparative, 3 ng/mL, 10 °C for 24 h in the autosampler, LC-MS/MS, mean ± SD, n = 5): 102 ± 9%
- Autosampler stability (percentage of drug remaining), HQC ([1]; rat plasma samples, post-preparative, 800 ng/mL, 10 °C for 24 h in the autosampler, LC-MS/MS, mean ± SD, n = 5): 92.7 ±1.2%
- Bench-top stability (percentage of drug remaining), LQC ([1]; rat plasma, 3 ng/mL, room temperature for 3 h, LC-MS/MS, mean ± SD, n = 5): 105 ± 7%
- Freeze-thaw stability (percentage of drug remaining), LQC ([1]; rat plasma, 3 ng/mL, three freezing and thawing cycles every 12 h at −20 °C, LC-MS/MS, mean ± SD, n = 5): 107 ± 4%
- Long-term stability (percentage of drug remaining), LQC ([1]; rat plasma, 3 ng/mL, −20 °C for 30 d, LC-MS/MS, mean ± SD, n = 5): 91.2 ± 4.0%
- Bench-top stability (percentage of drug remaining), HQC ([1]; rat plasma, 800 ng/mL, room temperature for 3 h, LC-MS/MS, mean ± SD, n = 5): 97.7± 2.0%
- Freeze-thaw stability (percentage of drug remaining), HQC ([1]; rat plasma, 800 ng/mL, three freezing and thawing cycles every 12 h at −20 °C, LC-MS/MS, mean ± SD, n = 5): 107 ± 4%
- Long-term stability (percentage of drug remaining), HQC ([1]; rat plasma, 800 ng/mL, −20 °C for 30 d, LC-MS/MS, mean ± SD, n = 5): 93.4 ± 2.6%
- Recovery values after exposure to different stability conditions ([1]; rat plasma, 3 and 800 ng/mL, range over bench-top, autosampler, freeze-thaw and long-term conditions): 91.2–107%
- Tmax ([2]; male, Sprague-Dawley, sc): 300 min
- half-life ([2]; male, Sprague-Dawley, sc): 172 ± 66 min
- level at 1 h ([2]; male, Sprague-Dawley, sc, 0.122 mg/kg): 11.7 ng/mL

SMILES: CCNC(=O)[C@@H]1CCCN1C(=O)[C@H](CCCNC(=N)N)NC(=O)[C@H](CC(C)C)NC(=O)[C@@H](CC(C)C)NC(=O)[C@H](Cc1ccc(O)cc1)NC(=O)[C@H](CO)NC(=O)[C@H](Cc1c[nH]c2ccccc12)NC(=O)[C@H](Cc1c[nH]cn1)NC(=O)[C@@H]1CCC(=O)N1 [Leuprolide, pyroGlu-His-Trp-Ser-Tyr-D-Leu-Leu-Arg-Pro-NHEt, reference compound]
- Tmax ([2]; male, Sprague-Dawley, sc): 15 min
- half-life ([2]; male, Sprague-Dawley, sc): 38.2 ± 4.3 min
- Calculated plasma concentration at 60 min after subcutaneous administration of LOC [2]: 1.86 ng/mL
- MRTinf in the intravenous group [3]: 28.1 min
